Experimental data: IntAct's records for PubMed 17525340

B1: BRCA1-A complex subunit Abraxas 1 (Homo sapiens), Q6UWZ7 (parent)
chain: MEGESTSAVLSGFVLGALAFQHLNTDSDTEGFLLGEVKGEAKNSITDSQMDDVEVVYTIDIQKYIPCYQLFSFYNSSGEVNEQALKKILSNVKKNVVGWYKFRRHSDQIMTFRERLLHKNLQEHFSNQDLVFLLLTPSIITESCSTHRLEHSLYKPQKGLFHRVPLVVANLGMSEQLGYKTVSGSCMSTGFSRAVQTHSSKFFEEDGSLKEVHKINEMYASLQEELKSICKKVEDSEQAVDKLVKDVNRLKREIEKRRGAQIQAAREKNIQKDPQENIFLCQALRTFFPNSEFLHSCVMSLKNRHVSKSSCNYNHHLDVVDNLTLMVEHTDIPEASPASTPQIIKHKALDLDDRWQFKRSRLLDTQDKRSKADTGSSNQDKASKMSSPETDEEIEKMKGFGEYSRSPTF
B2: BRCA1-A complex subunit Abraxas 1 (Homo sapiens), Q6UWZ7 (parent)
chain: B1 chain
partner: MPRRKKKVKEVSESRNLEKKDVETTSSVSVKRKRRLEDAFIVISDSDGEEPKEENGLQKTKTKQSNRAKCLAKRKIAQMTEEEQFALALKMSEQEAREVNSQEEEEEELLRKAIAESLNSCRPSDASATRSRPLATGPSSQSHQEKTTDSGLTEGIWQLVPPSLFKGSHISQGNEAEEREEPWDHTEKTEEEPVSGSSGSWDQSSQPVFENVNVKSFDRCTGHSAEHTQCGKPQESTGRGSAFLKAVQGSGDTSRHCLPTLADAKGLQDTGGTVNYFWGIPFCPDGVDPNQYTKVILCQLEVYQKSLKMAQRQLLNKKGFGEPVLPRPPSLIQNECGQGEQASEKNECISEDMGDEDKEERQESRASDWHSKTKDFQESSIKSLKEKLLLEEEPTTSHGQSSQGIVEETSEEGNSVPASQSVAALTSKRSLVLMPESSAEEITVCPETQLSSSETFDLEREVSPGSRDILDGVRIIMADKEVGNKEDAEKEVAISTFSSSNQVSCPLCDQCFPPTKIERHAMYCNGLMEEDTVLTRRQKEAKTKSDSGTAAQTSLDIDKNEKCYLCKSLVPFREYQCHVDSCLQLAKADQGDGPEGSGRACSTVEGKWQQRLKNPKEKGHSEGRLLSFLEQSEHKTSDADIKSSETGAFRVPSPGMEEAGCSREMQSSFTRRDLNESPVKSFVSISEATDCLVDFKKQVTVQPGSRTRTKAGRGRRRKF

Variants of: B1
Details: with brca1_human BRCA1, P38398
Sequence of brca1_human BRCA1, P38398 (P38398 whole entry, looked up): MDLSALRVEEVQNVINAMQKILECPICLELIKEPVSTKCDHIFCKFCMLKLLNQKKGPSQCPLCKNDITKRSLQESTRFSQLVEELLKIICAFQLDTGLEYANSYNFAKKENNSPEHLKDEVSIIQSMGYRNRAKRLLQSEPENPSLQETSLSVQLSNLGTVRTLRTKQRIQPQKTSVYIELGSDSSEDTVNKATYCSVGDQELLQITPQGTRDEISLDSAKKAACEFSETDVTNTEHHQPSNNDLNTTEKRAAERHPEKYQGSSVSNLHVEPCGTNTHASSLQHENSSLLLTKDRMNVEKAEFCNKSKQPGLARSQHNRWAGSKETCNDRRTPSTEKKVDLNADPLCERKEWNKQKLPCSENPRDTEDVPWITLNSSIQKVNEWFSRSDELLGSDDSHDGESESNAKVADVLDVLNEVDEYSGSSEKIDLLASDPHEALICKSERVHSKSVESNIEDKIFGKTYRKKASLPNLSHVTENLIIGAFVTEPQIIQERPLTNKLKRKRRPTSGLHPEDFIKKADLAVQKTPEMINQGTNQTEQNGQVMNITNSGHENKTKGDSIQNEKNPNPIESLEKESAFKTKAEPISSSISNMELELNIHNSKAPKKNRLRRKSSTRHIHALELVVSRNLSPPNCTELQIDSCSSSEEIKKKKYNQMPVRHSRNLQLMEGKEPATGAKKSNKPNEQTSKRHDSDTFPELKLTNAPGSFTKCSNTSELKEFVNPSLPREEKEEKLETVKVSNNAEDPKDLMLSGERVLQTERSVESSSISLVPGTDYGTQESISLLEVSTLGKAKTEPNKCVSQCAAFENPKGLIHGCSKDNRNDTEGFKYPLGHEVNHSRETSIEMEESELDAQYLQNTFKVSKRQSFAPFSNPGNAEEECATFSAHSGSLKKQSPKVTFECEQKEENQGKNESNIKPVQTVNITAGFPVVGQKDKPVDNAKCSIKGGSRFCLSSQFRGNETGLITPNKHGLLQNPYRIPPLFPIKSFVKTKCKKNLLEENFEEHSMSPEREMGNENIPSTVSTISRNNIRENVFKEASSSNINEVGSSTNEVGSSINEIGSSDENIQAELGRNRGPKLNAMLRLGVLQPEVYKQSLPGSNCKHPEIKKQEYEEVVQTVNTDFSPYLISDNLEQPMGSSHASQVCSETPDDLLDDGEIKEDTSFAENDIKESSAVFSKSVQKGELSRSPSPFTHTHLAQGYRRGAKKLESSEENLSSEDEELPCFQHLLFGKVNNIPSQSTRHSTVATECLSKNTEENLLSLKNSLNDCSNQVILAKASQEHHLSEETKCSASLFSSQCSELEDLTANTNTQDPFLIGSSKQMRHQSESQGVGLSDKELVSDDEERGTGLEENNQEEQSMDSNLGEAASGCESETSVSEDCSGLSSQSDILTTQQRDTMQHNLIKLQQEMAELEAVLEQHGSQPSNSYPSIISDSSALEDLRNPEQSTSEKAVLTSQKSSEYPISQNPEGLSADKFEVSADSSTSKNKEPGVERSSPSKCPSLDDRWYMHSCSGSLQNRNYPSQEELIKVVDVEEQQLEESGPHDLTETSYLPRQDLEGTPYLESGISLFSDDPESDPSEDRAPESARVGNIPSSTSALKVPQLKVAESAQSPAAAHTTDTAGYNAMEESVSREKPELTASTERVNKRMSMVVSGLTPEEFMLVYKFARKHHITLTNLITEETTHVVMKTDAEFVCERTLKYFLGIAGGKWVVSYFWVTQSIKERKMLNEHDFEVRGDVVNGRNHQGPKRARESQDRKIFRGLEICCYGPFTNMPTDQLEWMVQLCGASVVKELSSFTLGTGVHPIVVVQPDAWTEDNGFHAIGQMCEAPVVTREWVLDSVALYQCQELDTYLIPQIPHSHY

Variant | effect of a mutation on the interaction
S406A | disrupting interaction

Variants of: B1
Details: with brca1_human BRCA1, P38398
Remark: another data set of the same source

Variant | effect of a mutation on the interaction
S406A | increasing interaction

Variants of: B2
Details: with uimc1_human UIMC1, Q96RL1

Variant | effect of a mutation on the interaction
S406A | disrupting interaction
